Reference: the supplement of paper PMC9170038

System: MS2 coat protein
Experiment: apparent KD of MS2 coat protein; designed switch direction (-1 OFF switch, 1 ON switch): -1; higher = weaker reporter binding
Procedure, shortened: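 Stalled E. coli RNA polymerase transcribed designed RNA switches on Illumina chips, which were then titrated with SNAP-549-labelled MS2 coat protein, doubling from 0.7 or 1.5 nM to 3 µM. Steps lasted from 0.8–1.5 h at the lowest concentration to 10–20 min at the highest. The apparent KD is each design's median over clusters of curve-fitted normalised fluorescence.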

[1] = input ligand: microRNA oligo, concentration not stated
[2] = Eterna round: R95, input ligand: microRNA oligo, concentration not stated

Row | Sequence | apparent KD of MS2 coat protein [1] | apparent KD of MS2 coat protein (input ligand: FMN 200 uM) | apparent KD of MS2 coat protein (input ligand: none) | apparent KD of MS2 coat protein [2]
1 | AGCUGUGGCCGAGGAUAUGCUACUUCAAUAACCGAAAUAUAAUCGGACAUGAGGAUCACCCAUGUAGAGAAGGCGGUCUCAGCA [Eli eng2 - 085] (Eterna round: R96, puzzle: Exclusion NG 2) | 10.3 nM |  |  | 
2 | CAUUAUGUUGAGGAUAUGCGCCGGAAAACUGACGCAGAAGGCGACACAUGAGGAUCACCCAUGUCAGUUUGCGA [salish99_ex6_r004_425] (Eterna round: R97, puzzle: Exclusion 6) |  | 70.1 nM | 28.3 nM | 
3 | GCGGACAAGAUGGAGACAUCAGAGACAUGAGGAUCACCCAUGUAGGAUAUCGAUUCGAAACGAAUCGAGAAGGGCAUAGUCCGC [JL denovo 2] (Eterna round: R96, puzzle: Exclusion NG 3) | 13.3 nM | 16.8 nM | 19.2 nM | 
4 | CGUGUACGAGGAUAUAGAUUAGGUGACAUGAGGAUCACCCAUGUGAUCAAUCUAUUUGGUUUAGAAGGUGUACAUG [JR_Ex5_Sub052] (Eterna round: R97, puzzle: Exclusion 5) |  | 15 nM | 14 nM | 
5 | GCCUUAUCCGUCAGGAUAUACAGCCGCUCCCUGUUGUAGAAGGGACAUGAGGAUCACCCAUGUACGUACCAUUG [alecazam6] (Eterna round: R97, puzzle: Brourd's mod of Exclusion 4) |  | 31.8 nM | 39.1 nM | 
6 | GCUGCAAAUGUAGGAUAUCUGCACGAUUAGUGCAGAGAAGGACAUGAGGAUCACCCAUGUAGAUCAGCAGCAAUUAAUUUAAUU [ENG1/5-A1] (Eterna round: R96, puzzle: Exclusion NG 1) | 42.1 nM | 413 nM | 41.5 nM | 
7 | CUUAAGGCAGGAUAUGCUUUUUGUGACAUGAGGAUCACCCAUGUGAUGCAGUUUGGGUUUGCAGAAGGGCCUGAGU [JR_E5_Sub034] (puzzle: Exclusion 5) |  |  |  | 82.6 nM
8 | GCUUGUGGGCAAGGAUAUCCUGCGCUGUUCUGGUUCGUGUCUGUCACAUGAGGAUCACCCAUGUGGGAGAAGGUGCCUUUGGCG [Design 65] (Eterna round: R96, puzzle: Exclusion NG 2) | 10.5 nM | 12.5 nM | 13.2 nM | 
9 | GCUGGUCGAGGAUAUACAUGAGGAUCACCCAUGUGGUCACGUGACUUCGGUCACGAAUGUAGAAGGCGACCAGC [E3/3-A4] (Eterna round: R97, puzzle: Exclusion 3) |  | 65.8 nM | 610 nM | 
10 | CCCAUGUCAGGAUAUUAGAUACUGCCGCAAAACAAAGGCAUUGAGAAGGGACAUGAGGAUCACCCAUGUAAAAC [Soraxerila] (Eterna round: R97, puzzle: Exclusion 4) |  | 112 nM | 326 nM | 
11 | GGGUUGGUAGGAUAUACAUGAGGAUCACCCAUGUCAUGUCGUCGGGAAAGAUCUUUCCGUAGAAGGGCCACCCG [Eternabot (L2) Solution 52] (Eterna round: R97, puzzle: Exclusion 3) |  | 97 nM | 28 nM | 
12 | ACAAGCUUUGUUGGGUGGUACAUGAGGAUCACCCAUGUUUGCCGCGUCUUGUGGGCCCGGGCCCGCGGCCCGGGCCC [-41.8, -63.9, A 12%] (Eterna round: R97, puzzle: Sensor, turn-off variant 1) |  | 403 nM | 460 nM | 
13 | GCGCCAUCGUGAGAUGGCGUAAGUACAUGAGGAUCACCCAUGUAGGAUAUCGAUUGCUUUGCAGUCGAGAAGGGCGUGAUAAGU [JL ENG3 3.81] (Eterna round: R96, puzzle: Exclusion NG 3) | 64.1 nM | 97.3 nM | 76.9 nM | 
14 | GGCAUAAACGAGGAUAUCGAUACGGAAACGUAUCGAGAAGGUGUAACAUGAGGAUCACCCAUGUUCCUCAAGCC [Mat - Exclusion 6 - Eli Mod - D60] (puzzle: Exclusion 6) |  |  |  | 29.1 nM
15 | UAGGUGUGAGGAUAUGGUAAAGAUAAAAUGAUGAAAGAACUCCAGAAGGCACAUGAGGAUCACCCAUGUAGAUG [Mat - Exclusion 4 - Mod of JL - D33] (puzzle: Exclusion 4) |  |  |  | 28.3 nM
16 | GGGAAGAACCAACAAGCAAACAUGAGGAUCACCCAUGUUAGUGGUUCGAAUGUAAAGAUUAAGAGAGCUCGUCUUAU [AK-miRNA-r3-9] (Eterna round: R97, puzzle: Sensor, turn-off variant 1) |  | 18 nM | 20.2 nM | 
17 | CAGUAUUGAGGAUAUACAUGAGGAUCACCCAUGUGUUCCAGCUAGGAAACUAGCAAAAGUAGAAGGCAGUACUG [salish99_ex3_r3_085] (puzzle: Exclusion 3) |  |  |  | 21 nM
18 | CUGUGUAGACAGGAUAUGCUGUACAAAAGUACAGCAGAAGGGUCUACAUGAGGAUCACCCAUGUAUACCUCAUG [)mei Ex6 B25] (Eterna round: R97, puzzle: Exclusion 6) |  | 735 nM | 88.8 nM | 
